Experimental data published in article PMC10474089, “Activation of oxidoreductases by the formation of enzyme assembly” (Scientific Reports, 2023).

Tests used:
[1] = target: D-lactate dehydrogenase (DLD) from Gluconobacter oxydans (Gluconobacter oxydans); assay: SEC; Superdex 200 10/300 GL, 25 °C, 0.75 ml/min, 150 mM NaCl, 0.1 mM DTT, 1 mM EDTA, 25 mM Tris-HCl pH 7.5; assembly state against gel filtration standards
[2] = target: Poly-L-lysine (PLL) hydrobromide (molecular weight: 4000–15,000 Da)
[3] = target: L-lactate oxidase (LOX) derived from Enterococcus faecium (Enterococcus faecium); assay: SEC; Superdex 200 10/300 GL, 25 °C, 0.75 ml/min, 150 mM NaCl, 0.1 mM DTT, 1 mM EDTA, 25 mM Tris-HCl pH 7.5; assembly state against gel filtration standards
[4] = target: the molecule itself; assay: as above

## D-lactate dehydrogenase (DLD) from Gluconobacter oxydans (enzyme)
[1]
  stoichiometry N: 4

## L-lactate oxidase (LOX) derived from Enterococcus faecium (enzyme)
[2]
  enzyme activity (DCIP assay, 25 nM LOX) with 1 mM PLL against without PLL, at pH 7 and pH 8: 7.5 fold
[3]
  stoichiometry N: 4

B1: Acetaldehyde dehydrogenase (ALDH) from Sphingomonas wittichii (enzyme)
chain: AQAPITGGRPFADKPFKVEEVARFDSPWAMTFLPGGHMLVTEKAGRLLLLSPDGARRTAVEGVPAVDSSGQGALGEVVAHPDFATNGLVYFSYSAPGSPNGIVLARGKLVGDLGGARLEGVTTLYRAHPLKSGGHYAGRIAFSPDGHLFFSMGERQKFTPAQEPDGVLGKVVRLTMDGQPAPGNPLAAKGFDPAVWSYGHRNPLGLAFDLEGRLWDAEMGPKGGDEVNLILPGRNYGWPIVSNGDHYDGKPIPDHVTRPEFEAPKVSWNPSISPSSLLVYSGKLFPQWRGKALVGALSGEMLILVDLGEEGAKEEARYAMGQRIRAVDQGPDGAVYVLEDKAGGRLLRLMPAG
[4]
  stoichiometry N: 2

B2: Glucose dehydrogenase (GDH) from Acinetobacter calcoaceticus (enzyme, UniProt P13650 25-478, looked up)
chain: DVPLTPSQFAKAKSENFDKKVILSNLNKPHALLWGPDNQIWLTERATGKILRVNPESGSVKTVFQVPEIVNDADGQNGLLGFAFHPDFKNNPYIYISGTFKNPKSTDKELPNQTIIRRYTYNKSTDTLEKPVDLLAGLPSSKDHQSGRLVIGPDQKIYYTIGDQGRNQLAYLFLPNQAQHTPTQQELNGKDYHTYMGKVLRLNLDGSIPKDNPSFNGVVSHIYTLGHRNPQGLAFTPNGKLLQSEQGPNSDDEINLIVKGGNYGWPNVAGYKDDSGYAYANYSAAANKSIKDLAQNGVKVAAGVPVTKESEWTGKNFVPPLKTLYTVQDTYNYNDPTCGEMTYICWPTVAPSSAYVYKGGKKAITGWENTLLVPSLKRGVIFRIKLDPTYSTTYDDAVPMFKSNNRYRDVIASPDGNVLYVLTDTAGNVQKDDGSVTNTLENPGSLIKFTYKAK
notes: PQQ-dependent glucose dehydrogenase, Acinetobacter calcoaceticus; expression vector pET22b-acGDH, a gift from Aisin Cosmos R&D; printed mass 53.7 kDa, calculated pI 8.93; also called acGDH
[4]
  stoichiometry N: 4
